Experimental data published in article PMC5887372 (Nucleic Acids Research, 2018).
Each block holds one binder with its values, some of them ahead of it.

B2: DNMT1 RFTS domain (aa: 351–600) (domain or fragment)
chain: PKCIQCGQYLDDPDLKYGQHPPDAVDEPQMLTNEKLSIFDANESGFESYEALPQHKLTCFSVYCKHGHLCPIDTGLIEKNIELFFSGSAKPIYDDDPSLEGGVNGKNLGPINEWWITGFDGGEKALIGFSTSFAEYILMDPSPEYAPIFGLMQEKIYISKIVVEFLQSNSDSTYEDLINKIETTVPPSGLNLNRFTEDSLLRHAQFVVEQVESYDEAGDSDEQPIFLTPCMRDLIKLAGVTLGQRRAQAR
B3: DNMT1 RFTS domain E397A (domain or fragment)
chain: PKCIQCGQYLDDPDLKYGQHPPDAVDEPQMLTNEKLSIFDANESGFASYEALPQHKLTCFSVYCKHGHLCPIDTGLIEKNIELFFSGSAKPIYDDDPSLEGGVNGKNLGPINEWWITGFDGGEKALIGFSTSFAEYILMDPSPEYAPIFGLMQEKIYISKIVVEFLQSNSDSTYEDLINKIETTVPPSGLNLNRFTEDSLLRHAQFVVEQVESYDEAGDSDEQPIFLTPCMRDLIKLAGVTLGQRRAQAR
B5: DNMT1 RFTS domain E384A (domain or fragment)
chain: PKCIQCGQYLDDPDLKYGQHPPDAVDEPQMLTNAKLSIFDANESGFESYEALPQHKLTCFSVYCKHGHLCPIDTGLIEKNIELFFSGSAKPIYDDDPSLEGGVNGKNLGPINEWWITGFDGGEKALIGFSTSFAEYILMDPSPEYAPIFGLMQEKIYISKIVVEFLQSNSDSTYEDLINKIETTVPPSGLNLNRFTEDSLLRHAQFVVEQVESYDEAGDSDEQPIFLTPCMRDLIKLAGVTLGQRRAQAR

Assays:
ubiquitin [1] = target: T1, ubiquitin (UniProt P0CG48 1-76); experiment: NMR titration
ubiquitin [2] = target: T1, ubiquitin; experiment: ITC
[3] = target: B2; experiment: ITC
DNMT1 RFTS domain I442G = DNMT1 RFTS domain I442G (human, UniProt P26358 351-600, I442G); experiment: ITC
DNMT1 RFTS domain E397A = target: B3; experiment: ITC
DNMT1 RFTS domain Y399G = DNMT1 RFTS domain Y399G (human, UniProt P26358 351-600, Y399G); experiment: ITC
[4] = target: DNMT1 RFTS domain E384A/E397A (human, UniProt P26358 351-600, E384A | E397A); experiment: ITC
DNMT1 RFTS domain E384A = target: B5; experiment: ITC

binding result (ubiquitin [1]): binds
B1: DNMT1_351 (aa: 351–1616) (domain or fragment)
chain: PKCIQCGQYLDDPDLKYGQHPPDAVDEPQMLTNEKLSIFDANESGFESYEALPQHKLTCFSVYCKHGHLCPIDTGLIEKNIELFFSGSAKPIYDDDPSLEGGVNGKNLGPINEWWITGFDGGEKALIGFSTSFAEYILMDPSPEYAPIFGLMQEKIYISKIVVEFLQSNSDSTYEDLINKIETTVPPSGLNLNRFTEDSLLRHAQFVVEQVESYDEAGDSDEQPIFLTPCMRDLIKLAGVTLGQRRAQARRQTIRHSTREKDRGPTKATTTKLVYQIFDTFFAEQIEKDDREDKENAFKRRRCGVCEVCQQPECGKCKACKDMVKFGGSGRSKQACQERRCPNMAMKEADDDEEVDDNIPEMPSPKKMHQGKKKKQNKNRISWVGEAVKTDGKKSYYKKVCIDAETLEVGDCVSVIPDDSSKPLYLARVTALWEDSSNGQMFHAHWFCAGTDTVLGATSDPLELFLVDECEDMQLSYIHSKVKVIYKAPSENWAMEGGMDPESLLEGDDGKTYFYQLWYDQDYARFESPPKTQPTEDNKFKFCVSCARLAEMRQKEIPRVLEQLEDLDSRVLYYSATKNGILYRVGDGVYLPPEAFTFNIKLSSPVKRPRKEPVDEDLYPEHYRKYSDYIKGSNLDAPEPYRIGRIKEIFCPKKSNGRPNETDIKIRVNKFYRPENTHKSTPASYHADINLLYWSDEEAVVDFKAVQGRCTVEYGEDLPECVQVYSMGGPNRFYFLEAYNAKSKSFEDPPNHARSPGNKGKGKGKGKGKPKSQACEPSEPEIEIKLPKLRTLDVFSGCGGLSEGFHQAGISDTLWAIEMWDPAAQAFRLNNPGSTVFTEDCNILLKLVMAGETTNSRGQRLPQKGDVEMLCGGPPCQGFSGMNRFNSRTYSKFKNSLVVSFLSYCDYYRPRFFLLENVRNFVSFKRSMVLKLTLRCLVRMGYQCTFGVLQAGQYGVAQTRRRAIILAAAPGEKLPLFPEPLHVFAPRACQLSVVVDDKKFVSNITRLSSGPFRTITVRDTMSDLPEVRNGASALEISYNGEPQSWFQRQLRGAQYQPILRDHICKDMSALVAARMRHIPLAPGSDWRDLPNIEVRLSDGTMARKLRYTHHDRKNGRSSSGALRGVCSCVEAGKACDPAARQFNTLIPWCLPHTGNRHNHWAGLYGRLEWDGFFSTTVTNPEPMGKQGRVLHPEQHRVVSVRECARSQGFPDTYRLFGNILDKHRQVGNAVPPPLAKAIGLEIKLCMLAKARESASAKIKEEEAAKD

Binder: B2
Kd (ubiquitin [2]): 26 µM

Binder: B3
fold reduction of binding against wild-type RFTS (ubiquitin [2]): ~2 fold

Kd [3]: 41.3 µM
binding result (DNMT1 RFTS domain I442G): binds
binding result (DNMT1 RFTS domain E397A): binds
binding result (DNMT1 RFTS domain Y399G): binds
binding result [4]: binds
binding result (DNMT1 RFTS domain E384A): binds
B4: UHRF1 UBL domain (aa: 1–76) (domain or fragment)
chain: MWIQVRTMDGRQTHTVDSLSRLTKVEELRRKIQELFHVEPGLQRLFYRGKQMEDGHTLFDYEVRLNDTIQLLVRQS

Binder: B5
fold reduction of binding against wild-type RFTS (ubiquitin [2]): ~2 fold
